Test results from article PMC5059453, “Structure of ubiquitylated-Rpn10 provides insight into its autoregulation mechanism” (Nature Communications, 2016).

B1: free mono-ubiquitin (wild type) (natural protein)
chain: not shown
notes: ubiquitin (Ub), the mature 76-residue protein; also called Ub wt; source: purified, size exclusion chromatography before each experiment

Columns and labels:
Assay in all cases: SPR; α-GST antibody immobilized on a CM5 chip captures GST-Rpn10 derivatives (ligands); free mono-Ub variants as analytes; 10 mM HEPES pH 7.0, 150 mM NaCl, 0.005% polysorbate-20, 25 °C; triplicate; single-site-binding model
Details in all cases: both partners purified
[1] = biological target: T1, GST-Rpn10 (full-length Rpn10) (S. cerevisiae, UniProt P38886 1-268)
T1 construct: Rpn10, proteasomal ubiquitin receptor, S. cerevisiae; open reading frame encodes residues 1-268; Plasmid pGST-Rpn10; also called Rpn10 wt; wild-type full-length Rpn10; source: expressed and purified as GST-fusion protein, size exclusion chromatography before each experiment
T1 sequence (looked up): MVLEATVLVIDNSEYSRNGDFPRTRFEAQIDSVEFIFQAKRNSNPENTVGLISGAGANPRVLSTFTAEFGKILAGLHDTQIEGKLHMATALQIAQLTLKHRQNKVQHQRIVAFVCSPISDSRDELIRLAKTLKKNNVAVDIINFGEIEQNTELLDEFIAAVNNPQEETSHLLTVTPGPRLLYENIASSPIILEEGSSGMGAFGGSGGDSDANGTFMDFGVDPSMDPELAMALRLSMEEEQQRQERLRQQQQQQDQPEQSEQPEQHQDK

[2] = biological target: T2, GST-Rpn10 vWA domain (residues 1-189) (S. cerevisiae, UniProt P38886 1-189)
T2 construct: Rpn10, S. cerevisiae, N-terminal vWA (Von Willebrand factor type A) domain, residues 1-189 (made from pGST-Rpn10 by deleting residues 190-268); also called wild-type vWA; source: expressed and purified as GST-fusion protein, size exclusion chromatography before each experiment
T2 sequence (looked up): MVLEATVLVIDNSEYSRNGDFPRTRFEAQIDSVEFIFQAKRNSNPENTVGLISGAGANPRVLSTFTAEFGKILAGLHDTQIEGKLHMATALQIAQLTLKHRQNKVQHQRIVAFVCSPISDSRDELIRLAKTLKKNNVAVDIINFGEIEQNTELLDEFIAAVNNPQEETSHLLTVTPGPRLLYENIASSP

[3] = biological target: B1

B1
Kd [1]: ~270 µM
Kd [2]: ~330 µM

B2: GST-Rpn10 UIM (domain or fragment, S. cerevisiae, UniProt P38886 223-242, looked up)
chain: SMDPELAMALRLSMEEEQQR
notes: also called its UIM alone; source: expressed and purified as GST-fusion protein, size exclusion chromatography before each experiment
Kd [3]: ~180 µM
